Test results: patent US20250042992A1 (University of California, published 2025)

T1: DLK1 ECD-mFc long form (human DLK1-FL, isoform 1) (human, UniProt P80370 24-303)
T1 construct: also called long form of the human DLK1 protein (ELISA coat); not shown: mFc (monomeric immunoglobulin Fc domain)
T1 sequence: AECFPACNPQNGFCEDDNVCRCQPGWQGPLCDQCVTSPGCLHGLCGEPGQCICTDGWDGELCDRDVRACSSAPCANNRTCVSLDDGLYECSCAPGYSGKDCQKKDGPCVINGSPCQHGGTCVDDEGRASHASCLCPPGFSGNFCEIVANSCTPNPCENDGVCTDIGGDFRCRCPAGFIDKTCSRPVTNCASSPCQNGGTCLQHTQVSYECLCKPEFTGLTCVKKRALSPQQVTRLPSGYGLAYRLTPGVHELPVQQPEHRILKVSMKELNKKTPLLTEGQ

T2: mouse DLK1 fused to mGFP, overexpressed on HEK293T cells (mouse, UniProt Q09163 24-385)
T2 construct: not shown: mGFP fluorescent protein fused to DLK1
T2 sequence: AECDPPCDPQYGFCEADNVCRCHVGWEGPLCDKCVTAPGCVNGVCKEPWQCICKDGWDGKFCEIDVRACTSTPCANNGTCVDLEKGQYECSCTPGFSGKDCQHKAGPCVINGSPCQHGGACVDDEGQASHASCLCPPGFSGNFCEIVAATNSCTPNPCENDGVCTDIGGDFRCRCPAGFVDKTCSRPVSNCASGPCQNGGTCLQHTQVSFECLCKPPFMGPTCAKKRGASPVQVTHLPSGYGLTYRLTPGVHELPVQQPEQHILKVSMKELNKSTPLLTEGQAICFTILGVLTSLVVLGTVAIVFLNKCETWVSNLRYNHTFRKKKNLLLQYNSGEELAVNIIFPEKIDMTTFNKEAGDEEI

T3: rat DLK1 fused to mGFP, overexpressed on HEK293T cells (rat, UniProt O70534 24-383)
T3 construct: whole, on cells; not shown: mGFP fluorescent protein fused to DLK1
T3 sequence (looked up): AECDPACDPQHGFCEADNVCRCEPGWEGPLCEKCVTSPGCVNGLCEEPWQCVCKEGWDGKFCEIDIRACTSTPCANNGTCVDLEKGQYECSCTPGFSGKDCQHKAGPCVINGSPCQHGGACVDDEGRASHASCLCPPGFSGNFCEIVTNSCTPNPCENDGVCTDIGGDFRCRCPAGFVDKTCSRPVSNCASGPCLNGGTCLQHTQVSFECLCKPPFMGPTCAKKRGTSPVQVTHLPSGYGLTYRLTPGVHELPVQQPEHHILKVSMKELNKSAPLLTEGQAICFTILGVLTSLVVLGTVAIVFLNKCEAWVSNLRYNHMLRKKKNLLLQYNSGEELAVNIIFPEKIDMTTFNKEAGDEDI

T4: recombinant fusion protein of human DLK1 extracellular domain (ECD) and monomeric immunoglobulin Fc domain … (human, UniProt P80370 24-303)
T4 construct: also called human DLK1 ECD-mFc fusion protein; not shown: monomeric immunoglobulin Fc domain (mFc)
T4 sequence: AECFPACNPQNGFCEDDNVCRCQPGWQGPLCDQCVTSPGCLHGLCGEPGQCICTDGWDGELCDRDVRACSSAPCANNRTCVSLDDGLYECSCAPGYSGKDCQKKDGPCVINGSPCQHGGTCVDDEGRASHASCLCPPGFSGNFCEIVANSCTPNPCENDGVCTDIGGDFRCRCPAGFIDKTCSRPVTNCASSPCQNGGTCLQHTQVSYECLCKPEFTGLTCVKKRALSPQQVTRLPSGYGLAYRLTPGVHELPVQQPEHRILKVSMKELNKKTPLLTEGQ


Experiments:
[1] = target: T1, DLK1 ECD-mFc long form (human DLK1-FL, …); assay: ELISA, plate coated with long form of DLK1 ECD-mFc (isoform 1), anti-human IgG Fc-HRP, OD450nm
Experimental: Plates were incubated with DLK1 Abs serially diluted 2-fold starting from 400 ng/ml in 5% BSA/PBS at RT for 1.5 hrs. Mouse anti-human IgG Fc secondary antibody conjugated to HRP (Novus catalog number: NBP1-78623H) at 1:3000 dilution was applied to each well at 50 μl/well and further incubated at RT for 1 hr. The ELISA was developed first with Thermo Scientific Pierce 1-Step™ Ultra TMB-ELISA substrate solution and then with addition of sulfuric acid stop solution. The ELISA plate was read on a plate reader at 450 nm.

[2] = target: T2, mouse DLK1 fused to mGFP, overexpressed …; assay: flow cytometry, row HEK293T Mouse DLK1mGFP mass
[3] = target: T3, rat DLK1 fused to mGFP, overexpressed …; assay: flow cytometry, row HEK293T Rat DLK1mGFP mass pop
[4] = target: human DLK1 endogenously expressed on COR-L279 small cell lung carcinoma cells (human) (UniProt P80370); assay: flow cytometry, antibody at 20µg/ml, row CORL-279 (SCLC, DLK+); row M202 of the same block: 5,208.0
[5] = target: human DLK1-overexpressed on surface of HEK293T cells or DLK1-positive COR-L279 cells; assay: affinity on cells (HEK293T overexpressing human DLK1 or COR-L279); method not stated in the sentence (KinExA is named for FIG. 11)
[6] = target: T2, mouse DLK1 fused to mGFP, overexpressed …; assay: KinExA on cells, row HEK293T Mouse DLK1mGFP mass
[7] = target: T3, rat DLK1 fused to mGFP, overexpressed …; assay: KinExA on cells, row HEK293T Rat DLK1mGFP mass pop
[8] = target: T4, recombinant fusion protein of human …; assay: affinity on recombinant DLK1 ECD-mFc; method not stated

| EC50 [1] [nM] | binding result [2] | binding result [3] | Antibody Binding Activity by Flow Cytometry (20µg/ml) [4] | Kd [5] [nM] | Kd [6] [nM] | Kd [7] [nM] | Kd [8] [nM] | Binder |
| --- | --- | --- | --- | --- | --- | --- | --- | --- |
| 0.87 | no binding (tested: 20µg/ml) | no binding (tested: 20µg/ml) | – | – | – | – | – | humanized anti-DLK1 antibody 04-0561-F1 (IgG1) (antibody, V domains shown) VH: QVQLQESGPGLVKPSETLSLTCTVSGFSLSIYSVHWVRQPPGKGLEWIGLIWGGGSTDYNPSLKSRVTISKDTSKNQVSLKLSSVTAADTAVYYCARKEGNYLWFAYWGQGTLVTVSS VL: DIVMTQSPDSLAVSLGERVTMNCKSSQSLLQSSNQKNYLAWYQQKPGQPPKLLVYFASTRESGVPDRFSGSGSGTDFTLTISSVQAEDVAVYYCQQHYSIPLTFGQGTKLEIKR |
| – | – | – | 186000 | 5 to 9 | 13 | 5.96 | ~0.3 | humanized anti-DLK1 antibody 04-0547-h2 (IgG1) (antibody, V domains shown, human kappa (P01834) and human IgG1 (P01857) constant regions) VH: EVQLVESGGGLVQPGGSLRLSCAASGFSISDYYMAWVRQAPGKGLEWVANINYDGTNTYYADSVKGRFTISRDNSKNTLYLQMNSLRAEDTAVYYCVRSYYYYGMEYWGQGTTVTVSS VL: DIQMTQSPSSLSASVGDRVTITCRASHDVSTAVAWYQQKPGKAPKLLIYSASYRYTGVPSRFSGSGSGTDFTLTISSLQPEDFATYYCQQHYRIPLTFGQGTKLEIK |
